Article PMC11730874

Legend:
KIF17-mCitrine, Q9P2E2 = molecular target: T1, KIF17-mCitrine, Q9P2E2; assay: pull-down (His-tag magnetic beads) with Western blot densitometry; conditions: chain shown with the change; Rab23 proteins exchanged with GMPPNP; lysates from HEK293 cells transfected with KIF17-mCitrine; n = 3 independent experiments; parent: 100.00
T1 chain: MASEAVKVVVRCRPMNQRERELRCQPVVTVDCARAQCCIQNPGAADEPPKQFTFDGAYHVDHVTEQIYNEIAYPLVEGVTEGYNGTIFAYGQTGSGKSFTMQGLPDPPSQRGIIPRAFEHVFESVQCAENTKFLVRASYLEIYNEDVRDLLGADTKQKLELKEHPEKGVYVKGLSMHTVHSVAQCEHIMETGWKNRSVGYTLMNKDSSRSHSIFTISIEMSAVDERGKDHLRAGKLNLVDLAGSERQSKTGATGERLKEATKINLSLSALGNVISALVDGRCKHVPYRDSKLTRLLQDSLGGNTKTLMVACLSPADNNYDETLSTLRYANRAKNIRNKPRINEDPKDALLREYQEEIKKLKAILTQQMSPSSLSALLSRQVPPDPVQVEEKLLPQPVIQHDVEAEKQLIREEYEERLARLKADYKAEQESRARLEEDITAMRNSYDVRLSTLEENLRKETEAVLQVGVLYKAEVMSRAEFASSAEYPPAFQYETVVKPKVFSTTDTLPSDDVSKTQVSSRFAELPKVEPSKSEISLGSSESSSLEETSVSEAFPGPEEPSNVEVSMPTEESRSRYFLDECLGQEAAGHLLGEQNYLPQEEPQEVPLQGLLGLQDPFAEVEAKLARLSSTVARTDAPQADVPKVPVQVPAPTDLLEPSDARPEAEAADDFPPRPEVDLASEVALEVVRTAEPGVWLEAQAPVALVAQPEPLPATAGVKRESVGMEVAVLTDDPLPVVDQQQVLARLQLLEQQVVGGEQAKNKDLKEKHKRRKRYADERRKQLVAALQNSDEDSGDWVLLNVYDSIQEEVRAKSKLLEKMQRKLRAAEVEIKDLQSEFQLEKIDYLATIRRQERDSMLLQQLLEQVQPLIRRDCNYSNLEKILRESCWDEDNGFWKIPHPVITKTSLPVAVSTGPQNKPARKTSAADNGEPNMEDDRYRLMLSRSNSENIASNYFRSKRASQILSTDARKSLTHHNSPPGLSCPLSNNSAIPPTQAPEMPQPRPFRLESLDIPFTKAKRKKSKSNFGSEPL

[1] = molecular target: T2, hRab23_(7-172) Y79del (untagged) (human) (UniProt Q9ULC3)
T2 sequence: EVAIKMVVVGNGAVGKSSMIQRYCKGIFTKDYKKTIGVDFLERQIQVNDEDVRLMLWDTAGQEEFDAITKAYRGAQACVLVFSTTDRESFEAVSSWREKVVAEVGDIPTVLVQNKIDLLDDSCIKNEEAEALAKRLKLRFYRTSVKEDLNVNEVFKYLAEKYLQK

[2] = molecular target: T3, WT hRab23_(7-172) (untagged) (human) (UniProt Q9ULC3)
T3 sequence: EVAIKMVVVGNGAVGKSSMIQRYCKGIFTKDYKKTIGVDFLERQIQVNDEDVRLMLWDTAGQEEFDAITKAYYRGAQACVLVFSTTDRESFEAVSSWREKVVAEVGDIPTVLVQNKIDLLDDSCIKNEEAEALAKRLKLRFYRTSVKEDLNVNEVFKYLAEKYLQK

[3] = molecular target: T2, hRab23_(7-172) Y79del (untagged) (human); remark: listed apart in the source
[4] = molecular target: T3, WT hRab23_(7-172) (untagged) (human); remark: listed apart in the source

B1: His-SUMO-tagged WT hRab23_(7-172), GMPPNP-loaded, Q9ULC3 Y79del (protein)
chain: T2 sequence
KIF17-mCitrine, Q9P2E2
  percent of parent: 54.2%

B2: ecotropic viral integration site 5-like protein (EVI5L) (enzyme)
chain: MASPTLSPDSSSQEALSAPTCSPTSDSENLSPDELELLAKLEEQNRLLEADSKSMRSMNGSRRNSGSSLVSSSSASSNLSHLEEDTWILWGRIANEWEEWRRRKEKLLKELIRKGIPHHFRAIVWQLLCSATDMPVKNQYSELLKMSSPCEKLIRRDIARTYPEHEFFKGQDSLGQEVLFNVMKAYSLVDREVGYCQGSAFIVGLLLMQMPEEEAFCVFVRLMQEYRLRELFKPSMAELGLCIYQFEYMLQEQLPDLNTHFRSQSFHTSMYASSWFLTLFLTTFPLPVATRVFDIFMYEGLEIVFRVGLALLQVNQAELMQLDMEGMSQYFQRVIPHQFDSCPDKLVLKAYQVKYNPKKMKRLEKEYAAMKSKEMEEQIEIKRLRTENRLLKQRIETLEKGQVTRAQEAEENYVIKRELAVVRQQCSSAAEDLQKAQSTIRQLQEQQENPRLTEDFVSHLETELEQSRLRETETLGALREMQDKVLDMEKRNSSLPDENNVAQLQEELKALKVREGQAVASTRELKLQLQELSDTWQAHLARGGRWKESPRKLVVGELQDELMSVRLREAQALAEGRELRQRVVELETQDHIHRNLLNRVEAERAALQEKLQYLAAQNKGLQTQLSESRRKQAEAECKSKEEVMAVRLREADSMAAVAEMRQRIAELEIQREEGRIQGQLNHSDSSQYIRELKDQIEELKAEVRLLKGPPPFEDPLAFDGLSLARHLDEDSLPSSDEELLGVGVGAALQDALYPLSPRDARFFRRLERPAKDSEGSSDSDADELAAPYSQGLDN
[1]
  GTPase-Glo luminescence (remaining GTP) relative to buffer control, GAP-stimulated GTPase activity; 3 uM Rab23 Y79del, 2.25 uM EVI5L, 5 uM GTP, 20 mM EDTA, 30 °C, 2 h: 75.7%
[2]
  GTPase-Glo luminescence (remaining GTP) relative to buffer control, GAP-stimulated GTPase activity; 3 uM Rab23, 2.25 uM EVI5L, 5 uM GTP, 20 mM EDTA, 30 °C, 2 h: 58%

B3: Inturned-Fuzzy (Intu-Fuz) complex (complex)
chain 1: MASVASCDSRPSSDELPGDPSSQEEDEDYDFEDRVSDSGSYSSASSDYDDLEPEWLDSVQKNGELFYLELSEDEEESLLPETPTVNHVRFSENEIIIEDDYKERKKYEPKLKQFTKILRRKRLLPKRCNKKNSNDNGPVSILKHQSNQKTGVIVQQRYKDVNVYVNPKKLTVIKAKEQLKLLEVLVGIIHQTKWSWRRTGKQGDGERLVVHGLLPGGSAMKSGQVLIGDVLVAVNDVDVTTENIERVLSCIPGPMQVKLTFENAYDVKRETSHPRQKKTQSNTSDLVKLLWGEEVEGIQQSGLNTPHIIMYLTLQLDSETSKEEQEILYHYPMSEASQKLKSVRGIFLTLCDMLENVTGTQVTSSSLLLNGKQIHVAYWKESDKLLLIGLPAEEVPLPRLRNMIENVIQTLKFMYGSLDSAFCQIENVPRLDHFFNLFFQRALQPAKLHSSASPSAQQYDASSAVLLDNLPGVRWLTLPLEIKMELDMALSDLEAADFAELSEDYYDMRRLYTILGSSLFYKGYLICSHLPKDDLIDIAVYCRHYCLLPLAAKQRIGQLIIWREVFPQHHLRPLADSSTEVFPEPEGRYFLLVVGLKHYMLCVLLEAGGCASKAIGSPGPDCVYVDQVKTTLHQLDGVDSRIDERLASSPVPCLSCADWFLTGSREKTDSLTTSPILSRLQGTSKVATSPTCRRTLFGDYSLKTRKPSPSCSSGGSDNGCEGGEDDGFSPHTTPDAVRKQRESQGSDGLEESGTLLKVTKKKSTLPNPFHLGNLKKDLPEKELEIYNTVKLTSGPENTLFHYVALETVQGIFITPTLEEVAQLSGSIHPQLIKNFHQCCLSIRAVFQQTLVEEKKKGLNSGDHSDSAKSVSSLNPVKEHGVLFECSPGNWTDQKKAPPVMAYWVVGRLFLHPKPQELYVCFHDSVTEIAIEIAFKLFFGLTL
chain 2: MGEEGTGGTVHLLCLAASSGVPLFCRSSRGGAPARQQLPFSVIGSLNGVHMFGQNLEVQLSSARTENTTVVWKSFHDSITLIVLSSEVGISELRLERLLQMVFGAMVLLVGLEELTNIRNVERLKKDLRASYCLIDSFLGDSELIGDLTQCVDCVIPPEGSLLQEALSGFAEAAGTTFVSLVVSGRVVAATEGWWRLGTPEAVLLPWLVGSLPPQTARDYPVYLPHGSPTVPHRLLTLTLLPSLELCLLCGPSPPLSQLYPQLLERWWQPLLDPLRACLPLGPRALPSGFPLHTDILGLLLLHLELKRCLFTVEPLGDKEPSPEQRRRLLRNFYTLVTSTHFPPEPGPPEKTEDEVYQAQLPRACYLVLGTEEPGTGVRLVALQLGLRRLLLLLSPQSPTHGLRSLATHTLHALTPLL
[3]
  GTPase-Glo luminescence (remaining GTP) relative to buffer control, GEF-aided nucleotide exchange; 3 uM Rab23 Y79del, 2.25 uM Intu-Fuz, 5 uM GTP, 30 °C, 2 h: 78.2%
[4]
  GTPase-Glo luminescence (remaining GTP) relative to buffer control, GEF-aided nucleotide exchange; 3 uM Rab23, 2.25 uM Intu-Fuz, 5 uM GTP, 30 °C, 2 h: 17.4%
